The numbers were not newly measured in publication PMC3538140, which cites them from elsewhere.

This series deals with TRAIL-R1 (Homo sapiens) (UniProt O00220).
Sequence of UniProt O00220 (O00220 24-468): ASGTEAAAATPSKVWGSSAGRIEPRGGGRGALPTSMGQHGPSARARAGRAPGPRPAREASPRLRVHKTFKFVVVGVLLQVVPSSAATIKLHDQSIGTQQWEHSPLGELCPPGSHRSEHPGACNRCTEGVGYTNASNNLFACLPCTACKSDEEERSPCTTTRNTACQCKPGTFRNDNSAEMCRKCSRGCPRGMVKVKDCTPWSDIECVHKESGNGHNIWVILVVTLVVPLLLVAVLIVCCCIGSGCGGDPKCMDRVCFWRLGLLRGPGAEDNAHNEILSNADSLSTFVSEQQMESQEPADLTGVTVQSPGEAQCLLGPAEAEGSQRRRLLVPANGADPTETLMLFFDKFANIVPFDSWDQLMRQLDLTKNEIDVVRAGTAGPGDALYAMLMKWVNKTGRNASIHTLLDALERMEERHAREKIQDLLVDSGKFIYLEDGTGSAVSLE

As usually defined, the Kd is the constant that tells how readily two partners part at equilibrium. As for TRAIL (from UniProt P50591), the Kd was 70 nM.
